Test results: patent publication US20190322750A1 (Y BIOLOGICS, published 2019)

T1: ITGA6
T1 construct: unrelated antigen column; all antibodies give 0.5 to 0.6
T1 sequence (P23229 whole entry, species assumed, looked up): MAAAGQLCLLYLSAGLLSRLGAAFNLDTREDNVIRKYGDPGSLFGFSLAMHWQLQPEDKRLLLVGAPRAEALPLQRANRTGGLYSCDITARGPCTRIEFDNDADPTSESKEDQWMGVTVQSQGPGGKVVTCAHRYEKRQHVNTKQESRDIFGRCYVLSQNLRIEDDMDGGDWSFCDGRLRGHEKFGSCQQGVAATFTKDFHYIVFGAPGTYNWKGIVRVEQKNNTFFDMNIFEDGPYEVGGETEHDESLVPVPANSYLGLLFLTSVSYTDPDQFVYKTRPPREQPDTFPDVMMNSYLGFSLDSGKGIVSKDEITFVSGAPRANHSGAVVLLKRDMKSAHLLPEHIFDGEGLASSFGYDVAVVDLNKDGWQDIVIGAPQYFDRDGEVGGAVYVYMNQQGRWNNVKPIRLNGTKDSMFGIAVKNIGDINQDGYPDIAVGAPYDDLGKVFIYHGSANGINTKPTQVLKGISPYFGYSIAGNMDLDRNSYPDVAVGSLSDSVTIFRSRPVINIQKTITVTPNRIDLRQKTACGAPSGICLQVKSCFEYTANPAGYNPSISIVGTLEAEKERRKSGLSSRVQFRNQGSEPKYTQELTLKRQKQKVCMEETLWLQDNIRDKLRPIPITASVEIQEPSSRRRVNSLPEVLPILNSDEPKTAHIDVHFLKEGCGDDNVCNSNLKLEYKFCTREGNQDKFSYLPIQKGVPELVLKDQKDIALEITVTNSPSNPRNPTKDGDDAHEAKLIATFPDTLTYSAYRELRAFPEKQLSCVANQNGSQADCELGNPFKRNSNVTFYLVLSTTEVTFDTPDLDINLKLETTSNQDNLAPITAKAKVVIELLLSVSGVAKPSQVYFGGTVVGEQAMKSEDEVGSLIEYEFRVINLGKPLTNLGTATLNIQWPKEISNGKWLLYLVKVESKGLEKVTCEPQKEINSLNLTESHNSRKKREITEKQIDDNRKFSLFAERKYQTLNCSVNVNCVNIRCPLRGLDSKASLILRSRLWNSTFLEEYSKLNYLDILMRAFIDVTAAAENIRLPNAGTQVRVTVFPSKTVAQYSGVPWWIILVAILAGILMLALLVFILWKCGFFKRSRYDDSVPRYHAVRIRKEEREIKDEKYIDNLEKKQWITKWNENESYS

B1: PDL1-23E5 (antibody, V domains shown)
VH: QVQLVQSGAEVVKPGSSVKVSCKASGDTFSRYAISWVRQAPGQAPEWMGRIIPVLGAANYARKFQDRVTITADISTTTAFMELTSLRSEDTAVYYCARSLSGYSLGAFDVWGPGTLVTVSS
VL: QLVLTQPPSVSGAPGQSVSISCIGSNSNIGTPYDVHWYQQIPGEAPKLLIYGSTNRPSGVPDRFSGSRSGSSASLDITGLQADDEAYYYCQSYDRSLGVSDVVFGGGTKLTVL
notes: Only FR/CDR pieces are tied to the clone
B2: PD-L1-16E12 (WT/Lambda) (antibody, V domains shown)
VH: QMQLVQSGAEVKKPGSSVKVSCKASGGTFSSYAISWVRQAPGQGLEWMGRIIPILGIANYAQKFQGRVTITADKSTSTAYMELSSLRSEDTAVYYCAKPRDGYNLVAFDIWGQGTMVTVSS
VL: QLVLTQPPSVSGAPGQTVTISCTGSSSNIGAGYDVHWYQQLPGTAPKLLIYGNNNRPSGVPDRFSGSKSGALASLAITGLQAEDGADYHCQSYDNSLSAHAVFGTGTKVTVL
B3: PD-L1-16E12 (WT/kappa) (antibody, V domains shown)
VH: QMQLVQSGAEVKKPGSSVKVSCKASGGTFSSYAISWVRQAPGQGLEWMGRIIPILGIANYAQKFQGRVTITADKSTSTAYMELSSLRSEDTAVYYCAKPRDGYNLVAFDIWGQGTMVTVSS
VL: QLVLTQPPSVSGAPGQTVTISCTGSSSNIGAGYDVHWYQQLPGTAPKLLIYGNNNRPSGVPDRFSGSKSGALASLAITGLQAEDGADYHCQSYDNSLSAHAVFGTGTKVTVL
notes: also called PD-L1-16E12-Kappa
B4: PDL1-31B7 (antibody, V domains shown)
VH: QVQLVESGAEVKKPGSSVKVSCKASGGTFSSYAISWVRQAPGQGLEWMGRIIPILGIANYAQKFQGRVTITADKSTSTAYMELSSLRSEDTAVYYCARASSGYSVGAFDIWGQGTMVTVSS
VL: QLVLTQPPSVSAPPGQKVTISCSGSSSNIGNNYVSWYQQLPGTAPKLLIYDNNERPSGIPDRFSASKSGTSATLGISGLQTGDEADYYCGTWDSSLSAGVFGGGTKLTVL
notes: as for B1
B5: PD-L1-16E12-LS-4F5 (Lambda) (antibody, V domains shown)
VH: QMQLVQSGAEVKKPGSSVKVSCKASGGTFSSYAISWVRQAPGQGLEWMGRIIPILGIANYAQKFQGRVTITADKSTSTAYMELSSLRSEDTAVYYCAKPRDGYNLVAFDIWGQGTMVTVSS
VL: QLVLTQPPSVSGAPGQRVTISCTGSSSNIGAGYDVHWYQQLPGAAPKLLIYGDINRPSGVPDRFSGSKSGISASLAITGLQAEDEADYYCQSYDSSLSGGVFGGGTKLTVL
B6: PDL1-27F8 (antibody, V domains shown)
VH: QVQLVQSGAEVKKPGSSVKVSCKASGGTFSSSAFSWVRQAPGHGLEWMGRIIPMFDMTDYAQRFQGRLTIIADESSSTAYMELSSLRSEDTAVYYCARSNPHYMDVWGQGTTVTVSS
VL: QLVLTQPPSVSGAPGQRVTISCTGSNSDIGAGHDVHWYQQIPGTAPKVLIYGNTDRPSGVPDRFSGSKSGTSASLAITGLQAEDEADYYCQSYDSSLSGYVFGTGTKVTVL
notes: as for B1
B7: PDL1-11A7 (antibody, V domains shown)
VH: QVQLVQSGAEVKKPGASVKVSCKVSGYTLTELSMHWVRQAPGKGLEWMGGFDPEDGETIYAQKFQGRVTMTEDTSTDTAYMELSSLRSEDTAVYYCARDPWGGYYGMDVWGQGTTVTVSS
VL: DIQMTQSPSSVSASVGDRVTINCRASQGIRTWLAWYQQKPGKAPKLLIYAASNLQSGVPSRFSGSGSGTDFTLTIASLQPEDFATYYCQQANSFPLTFGGGTKVEIK
notes: as for B1

Assays:
WT = biological target: T2, WT (human, UniProt Q9NZQ7); test: ELISA on coated antigen, column WT
T2 construct: recombinant; also called hPD-L1; antigen PD-L1 wild type (WT)
Method: (§1) An antigen PD-L1 wild type (WT) or several mutants were coated at a density of 100 ng/well on a 96-well immunoplate at 4° C. for 16 hours and the wells were blocked with 4% skim milk dissolved in PBS. Each well was washed with 0.2 ml of PBS/T, and then a single clone scFv-phage (each […]) cultured for 16 hours was added in a dose of 100 μl to each well and reacted at room temperature for 2 hours. Again, each well was washed 4 times with 0.2 ml of PBS/T, and then the second antibody, anti-Fab, was diluted to 1/2000 and reacted at room temperature for 1 hour. After washing with 0.2 ml of PBS/T, color development was performed and absorbance was measured at 490 nm.

M1 = test: ELISA on coated antigen, column M1
Method: as §1

M8 = test: ELISA on coated antigen, column M8
Method: as §1

M3 = test: ELISA on coated antigen, column M3
M4 = test: ELISA on coated antigen, column M4
Method: as §1

M6 = test: ELISA on coated antigen, column M6
Method: as §1

M5 = test: ELISA on coated antigen, column M5
Method: as §1

mouse PD-L1 protein = mouse PD-L1 protein (mouse, UniProt Q9EP73 19-238, limits assumed); test: ELISA on coated antigen, column mPD-L1
Method: as §1

M2 = test: ELISA on coated antigen, column M2
Method: as §1

M7 = test: ELISA on coated antigen, column M7
[1] = biological target: T3, PD-L1 on CHO cell line highly expressing PD-L1 (PD-1/PD-L1 blockade bioassay kit, promega J1250) (UniProt Q9NZQ7 19-290, limits assumed); test: cell-based or functional assay
ITGA6 = biological target: T1, ITGA6; test: ELISA on coated antigen, column ITGA6
PD-L1-His = biological target: T4, PD-L1-His (human, UniProt Q9NZQ7); test: competition ELISA: PD-L1-His pre-incubated with the antibody, then on coated PD-1-Fc (blocked ligand); % of max absorbance
T4 construct: recombinant, His-tagged; also called human PD-L1-His (S1479, Y-Biologics)

PD-L1-hFc = biological target: T5, PD-L1-hFc (human, UniProt Q9NZQ7 19-238); test: kinetics on PD-L1-hFc (legend paragraph 40; text names ProteOn XPR36, the sheet's sensorgrams have a nm axis)
T5 construct: extracellular domain; Made in HEK-293F cells, protein A purified; also called PD-L1 antigen; PD-L1 protein

[2] = biological target: T6, human PD-L1 over-expressed on HEK293E cells (human, UniProt Q9NZQ7 19-290); test: flow cytometry on HEK293E/PD-L1 cells, FITC anti-human IgG, serial dilutions; fit table
T6 construct: whole, on cells; also called human PD-L1 (NM_014143.2)
Method: 0.5 to 1×10⁶ cells per sample were prepared from the transformation cell pools highly expressing human PD-L1, and antibodies were serially diluted at a constant dilution rate and reacted with the prepared cells at 4° C. for 20 minutes. Then, the cells were washed three times with PBS (#LB001-02, Welgene) containing 2% fetal bovine serum and reacted at 4° C. for 20 minutes with an anti-human IgG antibody (#FI-3000, Vectorlabs) conjugated with a FITC (fluorescein isothiocyanate) fluorescent substance. Then, the cells were subjected to the same washing process as above and then suspended in 0.5 ml of PBS containing 2% FBS (#26140-079, Thermo Fisher) with an FACSCanto II flow cytometer (BD Biosciences, USA) as a flow cytometer (Table 11).

[3] = biological target: T3, PD-L1 on CHO cell line highly …; test: cell-based or functional assay; remark: listed apart in the source

T3 sequence (Q9NZQ7 19-290 limits assumed): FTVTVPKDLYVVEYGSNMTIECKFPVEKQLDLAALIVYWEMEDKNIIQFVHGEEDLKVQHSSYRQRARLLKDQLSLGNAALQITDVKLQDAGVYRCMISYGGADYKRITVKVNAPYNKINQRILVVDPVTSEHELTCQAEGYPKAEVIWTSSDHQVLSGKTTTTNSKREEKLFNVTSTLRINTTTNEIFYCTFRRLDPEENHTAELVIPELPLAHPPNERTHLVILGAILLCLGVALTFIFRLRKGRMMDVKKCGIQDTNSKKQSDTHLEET
Chain of mouse PD-L1 protein (Q9EP73 19-238 limits assumed): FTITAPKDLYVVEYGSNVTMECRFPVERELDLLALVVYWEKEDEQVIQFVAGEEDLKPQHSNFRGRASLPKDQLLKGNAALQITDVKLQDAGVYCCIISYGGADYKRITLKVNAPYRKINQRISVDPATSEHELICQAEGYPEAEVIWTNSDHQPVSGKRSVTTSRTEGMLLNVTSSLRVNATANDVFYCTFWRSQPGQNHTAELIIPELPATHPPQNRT
T2 sequence (Q9NZQ7 19-238 limits assumed): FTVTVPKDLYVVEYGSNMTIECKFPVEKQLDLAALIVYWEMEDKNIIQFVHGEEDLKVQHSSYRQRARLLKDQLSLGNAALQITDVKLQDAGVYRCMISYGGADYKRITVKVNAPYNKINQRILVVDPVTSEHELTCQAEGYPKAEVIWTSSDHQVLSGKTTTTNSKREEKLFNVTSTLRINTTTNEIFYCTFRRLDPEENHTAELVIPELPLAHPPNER
T4 sequence (Q9NZQ7 19-238 limits assumed): as above
T6 sequence (Q9NZQ7 19-290): as the sequence (Q9NZQ7 19-290 limits assumed) above
T5 sequence (Q9NZQ7 other isoform, or with tags, fused parts or gaps limits assumed): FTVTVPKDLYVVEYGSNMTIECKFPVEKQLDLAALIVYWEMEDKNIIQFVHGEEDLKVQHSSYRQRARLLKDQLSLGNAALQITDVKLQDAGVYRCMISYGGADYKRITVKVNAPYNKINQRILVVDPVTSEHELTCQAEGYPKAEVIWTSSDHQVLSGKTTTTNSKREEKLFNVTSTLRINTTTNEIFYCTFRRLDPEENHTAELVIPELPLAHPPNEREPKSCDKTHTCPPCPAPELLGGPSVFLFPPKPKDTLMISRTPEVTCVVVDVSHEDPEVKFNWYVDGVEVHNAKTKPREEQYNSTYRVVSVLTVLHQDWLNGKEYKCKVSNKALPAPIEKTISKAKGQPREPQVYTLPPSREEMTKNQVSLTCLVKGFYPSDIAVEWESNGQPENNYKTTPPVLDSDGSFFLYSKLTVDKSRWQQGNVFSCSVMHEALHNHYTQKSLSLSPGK

Binder	absorbance at 490 nm (WT)	absorbance at 490 nm (M1)	absorbance at 490 nm (M8)	absorbance at 490 nm (M3)	absorbance at 490 nm (M4)	absorbance at 490 nm (M6)	absorbance at 490 nm (M5)	absorbance at 490 nm (mouse PD-L1 protein)	absorbance at 490 nm (M2)	absorbance at 490 nm (M7)	Average *EC50 [nM], PD-1/PD-L1 blockade bioassay [1]	absorbance at 490 nm (ITGA6)	IC50 (PD-L1-His)	Kd (PD-L1-hFc)	kon (PD-L1-hFc)	Bmax [2]	Kd [2]	EC50 (column 1차 EC50 [nM], first run; row 16E12, curve legend 16E12_Kappa) [3]	EC50 (column 2차 EC50 [nM], second run; row 16E12, curve legend 16E12_Kappa) [3]	binding result (mouse PD-L1 protein)
B1	2.5	2.4	2.6	0.9	0.5	2.5	2.5	2.5	2.4	2.6	1.61 nM	0.5								
B2											0.96 nM		9.11 nM							
B3											0.47 nM		7.88 nM	0.0149 nM	268000 M⁻¹ s⁻¹	4140	4 nM	0.41 nM	0.45 nM	
B4	2.5	2.8	3	1.1	0.7	2.9	2.9	1.8	2.7	3	1.74 nM	0.5								
B5											0.25 nM		6.86 nM							
B6	2.9	2.6	2	0.9	0.4	2.9	2.9	0.1	2.5	3	1.1 nM	0.5								no binding
B7	2.5	2.5	0.4	0.8	2.4	2.5	2.5	0.1	2.3	2.5	3.25 nM	0.5								no binding
